This assay concerns the target T1, soluble human GCGR extracellular domain (human, UniProt P47871 26-136, limits assumed).
T1 construct: also called soluble GCGR; glucagon receptor extracellular domain
Briefly: SPR (Biacore), purified antibody re-tested; format as described for the screen: antibody captured by anti-mouse Fc, soluble human GCGR extracellular domain as analyte, 25 C. The procedure:
In addition, supernatants were screened for binding to human GCGR using a Biacore SPR system. Briefly, anti-mouse Fc antibody (Sigma-Aldrich) was immobilized on all four flow cells of a CM5 chip using amine coupling reagents (GE Healthcare LifeSciences). Hybridoma supernatants were diluted three-fold with PBS-P buffer (PBS containing 0.005% P20-PBS-P) and injected for 30 seconds over flow cells 2, 3 and 4 to capture the test antibodies and using flow cell 1 as a reference. The next step was an injection of soluble human GCGR extracellular domain (100 nM in PBS-P buffer) at a flow rate of 50 μL/min and monitoring of the binding kinetics at 25° C. Kinetic data were collected over time and fit using the simultaneous global fit equation to yield affinity constants (KD values) for each antibody.
On the technique in general: Surface plasmon resonance follows binding to a sensor surface in real time, without labels.

T1 sequence (P47871 26-136 limits assumed): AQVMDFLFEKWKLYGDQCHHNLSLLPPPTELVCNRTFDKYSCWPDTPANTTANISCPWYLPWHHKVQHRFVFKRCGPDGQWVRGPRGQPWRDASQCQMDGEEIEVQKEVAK

B1: 6B5 (antibody, V domains shown)
VH: QVQLQQSGTELVRPGTSVKISCKASGFTFTNHWLGWVKQRPGHGLEWIGDIYPGGYYINYNEKFKGKATLTADTSSSTAYMQLSSLTSEDSAVYFCARHTNYGSDYWGQGTTLTVSS
VL: DVLMTQIPLSLPVSLGDQASISCRSSQSIVDSYGNTFLEWYLQKPGQSPKLLIYKVSNRLSGVPDRFSGTGAGTDFTLKISRVEAEDLGIYYCFQGSHVPWTFGGGTKLEIK
notes: Mouse hybridoma antibody, purified; also called anti-GCGR antibody 6B5
In general, Kd refers to the concentration at which binding is half-saturated. B1 showed an equilibrium dissociation constant (Kd) of 200 pM.

B2: 14F4 (antibody, V domains shown)
VH: QVQLQQSGAELVRPGTSVNMSCKATGYTFTNYWIGWVKQRPGHGLEWIGDIFPGGFYSNYNEKFKGKATLTTDTSSSTGYMQLSSLTSEDSAIYYCARIWDRGFDYWGQGTTLTVSS
VL: DVLMTQSPLSLPVSLGDQASISCRSSQSIVDSYGNTYLEWYLQKPGQSPKLLIYKVSNRFSGVPDRFSGSGSGTDFTLKISRVEAEDRGLYYCFQGSHVPYTFGGGTKLEIK
notes: Mouse hybridoma antibody, purified; also called anti-GCGR antibody 14F4
Molecule B2 gave a dissociation constant (Kd) of 600 pM.

B3: 13G9 (antibody, V domains shown)
VH: QVQLQQSGAELVRPGTSVKISCKASGYTFTNYWLGWVKQRPGHGLEWIGDIYPGGDYNNYNGKFKGKATLTADTSSSTAYIQLSSLTSEDSAVYFCVRSDDGYSWGQGTTLTVSS
VL: DVLMTQTPLSLPVSLGDQASISCRSSQSIVDSYGNTYLEWYQQKPGQSPTLLIYKVSNRFAGVPDRFSGSGSGTDFTLKISRVEAEDLGVYYCFQGSHIPWTFGGGTKVEIK
notes: Mouse hybridoma antibody, purified; also called anti-GCGR antibody 13G9
With B3, the Kd is 200 pM.

(Values after patent publication US20210284746A1 (NGM BIOPHARMACEUTICALS, published 2021).)
